Positions count from the first letter of the chain named. In names and notes the source's numbering stands.
B1: GLS3000 G89V one-amino acid altered one-arm antibody (CE115HA000-pE22Hh / Kn010G3 / GLS3000 G89V-kappa) (antibody, human IgG1, kappa, L234A L235A, N297A, name in Kabat numbering)
heavy: QVQLVESGGGVVQPGRSLRLSCAASGFTFSNAWMHWVRQAPGKGLEWVAQIKAKSNNYATYYAESVKGRFTISRDDSKNSLYLQMNSLKTEDTAVYYCRYVHYGAYYGVDAWGQGTTVTVSSASTKGPSVFPLAPSSKSTSGGTAALGCLVKDYFPEPVTVSWNSGALTSGVHTFPAVLQSSGLYSLSSVVTVPSSSLGTQTYICNVNHKPSNTKVDKKVEPKSCDKTHTCPPCPAPEAAGGPSVFLFPPKPKDTLMISRTPEVTCVVVDVSHEDPEVKFNWYVDGVEVHNAKTKPREEQYASTYRVVSVLTVLHQDWLNGKEYKCKVSNKALPAPIEKTISKAKGQPREPQVYTLPPSRCELTKNQVSLSCAVKGFYPSDIAVEWESNGQPENNYKTTPPVLDSDGSFFLVSKLTVDKSRWQQGNVFSCSVMHEALHNHYTQKSLSLSPDYKDDDDK
chain: EPKSSDKTHTCPPCPAPELLGGPSVFLFPPKPKDTLMISRTPEVTCVVVDVSHEDPEVKFNWYVDGVEVHNAKTKPREEQYNSTYRVVSVLTVLHQDWLNGKEYKCKVSNKALPAPIEKTISKAKGQPREPQVCTLPPSRDELTKNQVSLWCLVKGFYPSDIAVEWESNGQPENNYKTTPPVLDSDGSFFLYSKLTVDKSRWQQGNVFSCSVMHEALHNRYTQKSLSLSP
light: DIVMTQSPLSLPVTPGEPASISCRSSQSLVHSNRNTYLHWYQQKPGQAPRLLIYKVSNRFSGVPDRFSGSGSGTDFTLKISRVEAEDVGVYYCVQGTQVPYTFGQGTKLEIKRTVAAPSVFIFPPSDEQLKSGTASVVCLLNNFYPREAKVQWKVDNALQSGNSQESVTEQDSKDSTYSLSSTLTLSKADYEKHKVYACEVTHQGLSSPVTKSFNRGEC
notes: One-arm antibody; substitution position in Kabat numbering; also called L chain altered form, Kabat 89 G to V
B2: GLS3000 G91T one-amino acid altered one-arm antibody (CE115HA000-pE22Hh / Kn010G3 / GLS3000 G91T-kappa) (antibody, human IgG1, kappa, L234A L235A, N297A, name in Kabat numbering)
heavy: B1 heavy
chain: B1 chain
light: B1 light with V94G, G96T
notes: One-arm antibody; substitution position in Kabat numbering; also called L chain altered form, Kabat 91 G to T
B3: GLS3000 K74T one-amino acid altered one-arm antibody (CE115HA000-pE22Hh / Kn010G3 / GLS3000 K74T-kappa) (antibody, human IgG1, kappa, L234A L235A, N297A, name in Kabat numbering)
heavy: B1 heavy
chain: B1 chain
light: B1 light with K79T, V94G
notes: One-arm antibody; substitution position in Kabat numbering; also called L chain altered form, Kabat 74 K to T
B4: dBBDu_186 / dBBDu_L096 (antibody, human IgG1, V domains shown)
VH: QVQLVESGGGLVQPGRSLRLSCAASGFTFSNAWMHWVRQAPGKGLEWVAQIKDRSNQYATYYAPSVKGRFTISRDDSKNSIYLQMNSLKTEDTAVYYCHYVHYAQASTVLPAFGVDAWGQGTTVTVSS
VL: DIVMTQSPLSLPVTPGEPASISCRTSQELVHINRYIFLHWYQQKPGQAPRLLIYKVYNRFQGVPDRFSGSGSGTDFTLKISRVEAEDVGVYYCAQGTSVPYTFGQGTKLEIK
notes: Tested as IgG (human IgG1 constant region, kappa light chain); also called dBBDu186/L096
B5: dBBDu_167 / dBBDu_L091 (antibody, human IgG1, V domains shown)
VH: B4 VH with R54K, S55G, Q57L, T60A, Q105S, S107G, T108G, V109G, A112G
VL: DIVMTQSPLSLPVTPGEPASISCSASESLLHNNRHTYLHWYQQKPGQAPRLLIYRVSNRFNGVPDRFSGSGSGTDFTLKISRVEAEDVGVYYCGQGTQVPFTFGQGTKLEIK
notes: Tested as IgG (human IgG1 constant region, kappa light chain); also called dBBDu167/L091
B6: dBBDu_183 / dBBDu_L063 (antibody, V domains shown)
VH: B4 VH with R54K, S55G, Q57A, T60A, Q105S
VL: B4 VL with T25S, I32T, Y35H, I36T, F37Y, Y57S, Q61P, S98Q, Y101F
notes: Tested as IgG (Fab genes converted into IgG format, human IgG1 constant region, kappa light chain); also called dBBDu183/L063; dBBDu_183/L063
B7: dBBDu_189 / dBBDu_L112 (antibody, human IgG1, V domains shown)
VH: B4 VH with V48I, T108S, V109L, A112S
VL: B4 VL with R24T, T25S, S26D, I32M, Y35H, I36T, F37Y, Q61P, Y101F
notes: Tested as IgG (human IgG1 constant region, kappa light chain); also called dBBDu189/L112
B8: dBBDu_189 / dBBDu_L116 (antibody, human IgG1, V domains shown)
VH: B4 VH with V48I, T108S, V109L, A112S
VL: B4 VL with R24S, T25S, I32A, Y35Q, F37Y, Y57A, Q61P, S98Q, Y101F
notes: Tested as IgG (human IgG1 constant region, kappa light chain); also called dBBDu189/L116
B9: dBBDu_183 / dBBDu_L067 (antibody, human IgG1, V domains shown)
VH: B4 VH with R54K, S55G, Q57A, T60A, Q105S
VL: B5 VL with S24Q, A25S, L30V, N32V, R55K, S57Y, N61P, G94A, Q98S
notes: Tested as IgG (human IgG1 constant region, kappa light chain); also called dBBDu183/L067
B10: dBBDu_183 / dBBDu_L072 (antibody, human IgG1, V domains shown)
VH: B4 VH with R54K, S55G, Q57A, T60A, Q105S
VL: B4 VL with R24Q, T25A, I32M, Y35N, I36T, F37Y, Y57S, Q61P, Y101F
notes: Tested as IgG (human IgG1 constant region, kappa light chain); also called dBBDu183/L072; H183L072

What was measured:
[1] = target: T1, CD3 epsilon homodimer protein (UniProt P07766 23-126); experiment: SPR Biacore T200, CD3 epsilon homodimer immobilised on CM4, one-arm antibody as analyte, single-cycle kinetics; reference unaltered GLS3000 antibody;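 further: CD3 epsilon homodimer attached to the CM4 chip via amine coupling, measured at 25 °C with HBS-EP+ as running buffer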
T1 construct: also called CD3 (CD3 epsilon)
Method: An appropriate amount of CD3 epsilon homodimer protein was immobilized onto Sensor chip CM4 (GE Healthcare Japan Corp.) by the amine coupling method. Then, the antibody having an appropriate concentration was injected thereto as an analyte and allowed to interact with the CD3 epsilon homodimer protein on the sensor chip. Then, the sensor chip was regenerated by the injection of 10 mmol/L glycine-HCl (pH 1.5). The assay was conducted at 25 degrees C., and HBS-EP+(GE Healthcare Japan Corp.) was used as a running buffer. […] Each parameter was calculated using Biacore T200 Evaluation Software (GE Healthcare Japan Corp.).
Specifically, when the amount of the GLS3000-containing antibody bound was defined as X and the amount of the L chain one-amino acid altered form bound was defined as Y, a value of Z (ratio of amounts bound)=Y/X was used.

[2] = target: T2, cynomolgus monkey CD137 (cynomolgus monkey, UniProt Q07011 24-186 (human entry), limits assumed); experiment: SPR Biacore T200, IgG captured on protein A, antigen as analyte, 25 C;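 further: antigens flowed over a CM3 chip for 120 s association, KD derived from ka and kd, running buffer (ACES, NaCl, Tween20, pH 7.4) served as blank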
T2 construct: Soluble analyte in the Biacore assay; also called cyno CD137
T2 chain: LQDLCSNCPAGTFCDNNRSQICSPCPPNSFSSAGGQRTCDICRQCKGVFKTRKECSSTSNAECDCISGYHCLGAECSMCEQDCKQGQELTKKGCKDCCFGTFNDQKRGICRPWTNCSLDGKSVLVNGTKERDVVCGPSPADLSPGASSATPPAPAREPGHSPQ
Method: (§1) Sensor chip CM3 (GE Healthcare) was immobilized with an appropriate amount of sure protein A (GE Healthcare) by amine coupling. The selected antibodies were captured by the chip to allow interaction to human CD3ed, human CD137 and cyno CD137 as an antigen. The running buffer used was 20 mmol/l ACES, 150 mmol/l NaCl, 0.05% (w/v) Tween20, pH 7.4. All measurements were carried out at 25 degrees C. The antigens were diluted using the running buffer.
(§2) Diluted antigen solutions and the running buffer which is the blank were loaded at a flow rate of 30 micro L/min for 120 seconds to allow each of the antigens to interact with the antibody captured on the sensor chip. […] Next, to regenerate the sensor chip, 10 mmol/L glycine-HCl, pH 1.5 was loaded at a flow rate of 30 micro L/min for 30 seconds and 50 mmol/L NaOH was loaded at a flow rate 30 micro L/min for 30 seconds.
(§3) Kinetic parameters such as the association rate constant ka (1/Ms) and the dissociation rate constant kd (1/s) were calculated based on the sensorgrams obtained by the measurements. The dissociation constant KD(M) was calculated from these constants. Each parameter was calculated using the Biacore T200 Evaluation Software (GE Healthcare).

[3] = target: T3, human CD3ed (human, UniProt P07766 23-126; P04234 22-105, limits assumed); experiment: as above
T3 construct: The construct injected as 'human CD3ed' in the Biacore assay is not defined; also called human CD3 epsilon/delta heterodimer
T3 sequence (P07766 23-126 limits assumed, chain 1 of 2): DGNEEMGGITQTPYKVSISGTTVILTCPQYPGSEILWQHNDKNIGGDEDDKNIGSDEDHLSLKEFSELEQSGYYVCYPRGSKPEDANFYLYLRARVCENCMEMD
T3 sequence (P04234 22-105 limits assumed, chain 2 of 2): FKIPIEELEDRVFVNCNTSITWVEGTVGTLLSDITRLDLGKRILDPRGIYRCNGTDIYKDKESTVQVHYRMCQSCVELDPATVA
Method: as §1, §2, §3

T1 sequence (P07766 23-126): as the sequence (P07766 23-126 limits assumed, chain 1 of 2) above

Binder	dissociation constant KD(M) ratio of L chain altered form to GLS3000 [1] [ratio]	Kd [2] [µM]	koff [2] [s⁻¹]	Kd [3] [µM]	koff [3] [s⁻¹]	kon [3] [M⁻¹ s⁻¹]	kon [2] [M⁻¹ s⁻¹]
B1	1.4	–	–	–	–	–	–
B2	39.9	–	–	–	–	–	–
B3	0.85	–	–	–	–	–	–
B4	–	205	0.00223	9.11	0.102	11200	–
B5	–	4.17	0.0101	0.413	0.0216	52400	2430
B6	–	3.12	0.00457	0.276	0.0157	56900	1470
B7	–	5.76	0.0286	0.331	0.01	30300	4980
B8	–	11.1	0.00823	0.209	0.00434	20800	744
B9	–	6.2	0.00813	0.217	0.0193	88900	1310
B10	–	4.87	0.00593	0.217	0.00785	36100	1220
